Earlier results on one substance are cited in article PMC8364556.

The data set concerns the target IL-10R complex (Homo sapiens) (UniProt Q13651).

Chain of IL-10 (P22301 19-178): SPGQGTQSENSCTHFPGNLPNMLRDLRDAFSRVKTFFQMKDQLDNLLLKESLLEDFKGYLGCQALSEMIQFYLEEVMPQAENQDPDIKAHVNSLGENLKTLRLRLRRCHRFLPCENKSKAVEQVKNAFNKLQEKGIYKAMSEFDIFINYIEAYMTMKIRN
Chain of IL-10R complex (Homo sapiens) (Q13651 22-235, chain 1 of 2): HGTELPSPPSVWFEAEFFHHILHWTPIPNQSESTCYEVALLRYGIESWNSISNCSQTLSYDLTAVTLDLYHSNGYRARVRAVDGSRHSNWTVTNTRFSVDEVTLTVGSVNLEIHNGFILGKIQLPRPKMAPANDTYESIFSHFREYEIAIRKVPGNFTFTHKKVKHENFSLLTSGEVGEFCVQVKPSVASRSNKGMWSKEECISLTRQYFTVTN
Chain of IL-10R complex (Homo sapiens) (Q08334 20-220, chain 2 of 2, further chain): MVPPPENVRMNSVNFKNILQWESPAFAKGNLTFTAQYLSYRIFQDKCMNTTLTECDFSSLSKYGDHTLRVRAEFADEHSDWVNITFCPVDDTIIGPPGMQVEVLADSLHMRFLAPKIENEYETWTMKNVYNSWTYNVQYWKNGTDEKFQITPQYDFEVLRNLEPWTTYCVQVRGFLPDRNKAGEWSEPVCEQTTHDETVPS

The term Kd denotes the free concentration of one partner at which half of the binding sites on the other are occupied at equilibrium, for simple one-to-one binding. In the case of IL-10 (from UniProt P22301), the Kd is 0.56 nM.
